Data taken from paper PMC7117682.
pEC50, pIC50: −log10 of the molar value.

What was measured:
[1] = molecular target: CD47 naturally expressed on CD47(+) Jurkat T lymphoma cells (human (endogenous in Jurkat)) (UniProt Q08722); assay: laser scanning cytometry (LSC) on cells; titration of SIRPα-biotin on live DRAQ5-labelled Jurkat cells, 384-well, homogeneous (no wash), HEPES buffer (10 mM HEPES pH 7.5, 0.15 M NaCl), room temperature, neutravidin-Alexa488 0.5 μg/mL; SIRPα presented as a multimer on tetrameric neutravidin (avidity)
[2] = molecular target: CD47 naturally expressed on CD47(+) Jurkat T lymphoma cells (human (endogenous in Jurkat)) (UniProt Q08722); assay: laser scanning cytometry (LSC) on cells; competition on live CD47(+) Jurkat cells, 384-well, homogeneous: a fixed concentration of SIRPα-biotin (20 nM) co-incubated with a titration of the competitor or inhibitor, neutravidin-Alexa488

CD47 naturally expressed on CD47(+) Jurkat T lymphoma cells (human (endogenous in Jurkat)), sequence (Q08722 19-323): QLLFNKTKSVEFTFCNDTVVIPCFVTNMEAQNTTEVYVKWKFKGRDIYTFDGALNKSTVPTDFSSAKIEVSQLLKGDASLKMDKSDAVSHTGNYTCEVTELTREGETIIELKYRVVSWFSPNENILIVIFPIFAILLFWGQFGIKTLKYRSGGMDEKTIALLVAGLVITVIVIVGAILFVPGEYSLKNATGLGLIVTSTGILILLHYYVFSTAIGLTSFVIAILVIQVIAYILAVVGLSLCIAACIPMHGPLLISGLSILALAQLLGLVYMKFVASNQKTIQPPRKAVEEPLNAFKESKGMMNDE

| pEC50 [1] | fold more potent than SIRPαV1 [1] | pIC50 [2] | Substance |
| --- | --- | --- | --- |
| 7.80 | 2 fold |  | SIRPα variant 2, biotin-conjugated (SIRPα-Avi-biotin d1 construct) (domain or fragment) |
|  |  | 5.52 | SIRPα variant 2, non-biotin conjugated (cold) (domain or fragment) |
